Legend:
[1] = target: T1, human factor VIIIa, P00451
T1 chain: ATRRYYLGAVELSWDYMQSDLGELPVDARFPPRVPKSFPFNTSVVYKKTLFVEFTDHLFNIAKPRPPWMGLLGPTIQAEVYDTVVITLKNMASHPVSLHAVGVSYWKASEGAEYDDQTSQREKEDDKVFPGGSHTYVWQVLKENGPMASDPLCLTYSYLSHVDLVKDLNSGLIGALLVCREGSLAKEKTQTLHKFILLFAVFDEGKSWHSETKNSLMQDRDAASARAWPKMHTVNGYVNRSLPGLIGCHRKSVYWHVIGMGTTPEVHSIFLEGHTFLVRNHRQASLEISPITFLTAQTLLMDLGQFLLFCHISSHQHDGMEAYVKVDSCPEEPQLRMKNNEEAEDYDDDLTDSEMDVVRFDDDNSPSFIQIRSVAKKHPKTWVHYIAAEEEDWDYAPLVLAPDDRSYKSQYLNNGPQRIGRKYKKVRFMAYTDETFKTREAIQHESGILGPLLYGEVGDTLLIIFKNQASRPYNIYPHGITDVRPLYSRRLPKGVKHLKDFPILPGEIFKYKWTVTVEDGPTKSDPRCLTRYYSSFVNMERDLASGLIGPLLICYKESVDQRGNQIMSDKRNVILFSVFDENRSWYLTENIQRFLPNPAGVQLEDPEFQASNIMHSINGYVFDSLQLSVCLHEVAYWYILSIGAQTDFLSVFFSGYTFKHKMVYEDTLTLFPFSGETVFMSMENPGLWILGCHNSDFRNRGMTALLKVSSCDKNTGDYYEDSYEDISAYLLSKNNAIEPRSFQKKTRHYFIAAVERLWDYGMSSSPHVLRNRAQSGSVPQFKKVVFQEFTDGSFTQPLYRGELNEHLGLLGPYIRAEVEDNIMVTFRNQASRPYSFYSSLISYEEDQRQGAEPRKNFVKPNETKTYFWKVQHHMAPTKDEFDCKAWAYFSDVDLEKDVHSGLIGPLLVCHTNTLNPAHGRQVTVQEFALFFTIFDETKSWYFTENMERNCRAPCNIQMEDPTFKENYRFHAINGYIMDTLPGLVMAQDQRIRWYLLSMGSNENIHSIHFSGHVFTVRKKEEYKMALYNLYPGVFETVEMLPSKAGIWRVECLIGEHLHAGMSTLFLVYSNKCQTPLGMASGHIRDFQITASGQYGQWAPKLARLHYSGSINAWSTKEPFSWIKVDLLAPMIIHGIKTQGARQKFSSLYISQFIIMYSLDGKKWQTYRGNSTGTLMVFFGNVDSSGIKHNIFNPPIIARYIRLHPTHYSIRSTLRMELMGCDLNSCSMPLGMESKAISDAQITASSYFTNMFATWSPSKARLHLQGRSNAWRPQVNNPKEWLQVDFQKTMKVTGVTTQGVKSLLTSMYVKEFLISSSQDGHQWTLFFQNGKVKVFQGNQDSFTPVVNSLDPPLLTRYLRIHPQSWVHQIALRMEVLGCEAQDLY

[2] = target: bovine factor Va (in bovine plasma), Q28107
[3] = target: human factor Va (normal, from human plasma), P12259
[4] = target: Q506 mutant human factor Va (FVa Leiden), P12259
Chain of Q506 mutant human factor Va (FVa Leiden), P12259 (P12259 other isoform, or with tags, fused parts or gaps mutant): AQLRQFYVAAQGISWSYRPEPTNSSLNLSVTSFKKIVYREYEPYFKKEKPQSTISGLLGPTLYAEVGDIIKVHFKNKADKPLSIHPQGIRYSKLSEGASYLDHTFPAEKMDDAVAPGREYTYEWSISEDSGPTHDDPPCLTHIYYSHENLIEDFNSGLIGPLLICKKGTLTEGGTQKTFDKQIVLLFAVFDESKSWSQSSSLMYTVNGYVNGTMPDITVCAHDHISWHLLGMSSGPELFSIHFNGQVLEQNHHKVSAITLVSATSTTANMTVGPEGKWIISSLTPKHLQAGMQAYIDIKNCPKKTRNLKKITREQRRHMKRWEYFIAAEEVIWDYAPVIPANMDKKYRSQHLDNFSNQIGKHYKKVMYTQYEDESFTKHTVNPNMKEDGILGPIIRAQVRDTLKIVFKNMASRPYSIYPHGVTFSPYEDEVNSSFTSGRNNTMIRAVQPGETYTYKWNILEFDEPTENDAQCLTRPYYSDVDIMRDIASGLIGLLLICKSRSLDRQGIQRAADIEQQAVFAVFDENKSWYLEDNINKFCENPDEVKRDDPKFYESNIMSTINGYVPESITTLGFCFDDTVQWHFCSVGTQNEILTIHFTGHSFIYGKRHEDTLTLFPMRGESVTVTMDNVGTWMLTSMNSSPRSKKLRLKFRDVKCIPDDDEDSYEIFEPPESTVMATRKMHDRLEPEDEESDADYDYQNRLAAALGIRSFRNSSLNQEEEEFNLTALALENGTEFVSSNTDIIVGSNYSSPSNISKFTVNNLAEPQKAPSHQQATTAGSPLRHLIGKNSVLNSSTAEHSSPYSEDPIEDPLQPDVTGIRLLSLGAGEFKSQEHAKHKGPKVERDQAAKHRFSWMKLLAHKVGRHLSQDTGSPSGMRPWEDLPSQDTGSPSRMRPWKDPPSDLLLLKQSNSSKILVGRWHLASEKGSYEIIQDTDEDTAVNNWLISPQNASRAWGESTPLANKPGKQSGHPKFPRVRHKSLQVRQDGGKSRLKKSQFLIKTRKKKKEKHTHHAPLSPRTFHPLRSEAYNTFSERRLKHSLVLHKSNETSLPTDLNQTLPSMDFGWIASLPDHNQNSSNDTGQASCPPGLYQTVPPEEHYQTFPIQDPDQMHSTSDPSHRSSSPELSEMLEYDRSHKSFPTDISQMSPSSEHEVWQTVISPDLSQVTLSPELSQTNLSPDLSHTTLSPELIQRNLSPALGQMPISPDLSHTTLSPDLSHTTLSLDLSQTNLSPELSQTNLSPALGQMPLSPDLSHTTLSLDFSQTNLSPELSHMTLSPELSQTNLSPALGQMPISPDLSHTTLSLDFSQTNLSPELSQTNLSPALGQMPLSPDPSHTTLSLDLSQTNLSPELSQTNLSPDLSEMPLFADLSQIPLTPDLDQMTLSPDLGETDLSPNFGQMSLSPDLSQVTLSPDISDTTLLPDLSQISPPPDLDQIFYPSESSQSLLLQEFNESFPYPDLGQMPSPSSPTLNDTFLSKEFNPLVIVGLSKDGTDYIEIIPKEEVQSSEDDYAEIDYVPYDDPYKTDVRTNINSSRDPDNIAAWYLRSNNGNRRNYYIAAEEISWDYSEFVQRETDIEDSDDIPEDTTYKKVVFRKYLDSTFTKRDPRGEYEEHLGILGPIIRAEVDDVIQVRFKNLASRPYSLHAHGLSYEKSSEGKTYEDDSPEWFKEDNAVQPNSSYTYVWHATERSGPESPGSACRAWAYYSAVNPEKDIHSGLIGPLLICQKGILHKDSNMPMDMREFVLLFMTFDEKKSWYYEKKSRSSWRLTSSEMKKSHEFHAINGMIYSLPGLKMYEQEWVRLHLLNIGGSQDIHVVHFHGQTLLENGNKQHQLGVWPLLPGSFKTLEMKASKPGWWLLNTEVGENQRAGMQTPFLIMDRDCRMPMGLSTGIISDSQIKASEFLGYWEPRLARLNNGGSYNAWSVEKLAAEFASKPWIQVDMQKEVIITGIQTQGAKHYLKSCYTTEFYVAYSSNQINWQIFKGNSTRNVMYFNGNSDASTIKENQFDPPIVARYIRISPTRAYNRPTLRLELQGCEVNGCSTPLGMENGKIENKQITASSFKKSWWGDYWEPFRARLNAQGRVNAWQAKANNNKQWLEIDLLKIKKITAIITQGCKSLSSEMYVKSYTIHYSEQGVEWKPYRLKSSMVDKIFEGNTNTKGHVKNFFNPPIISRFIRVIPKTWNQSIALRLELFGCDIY

Chain of human factor Va (normal, from human plasma), P12259 (P12259 29-2224): as the sequence (P12259 other isoform, or with tags, fused parts or gaps mutant) above, with Q506R counted along it
Chain of bovine factor Va (in bovine plasma), Q28107 (Q28107 29-2211): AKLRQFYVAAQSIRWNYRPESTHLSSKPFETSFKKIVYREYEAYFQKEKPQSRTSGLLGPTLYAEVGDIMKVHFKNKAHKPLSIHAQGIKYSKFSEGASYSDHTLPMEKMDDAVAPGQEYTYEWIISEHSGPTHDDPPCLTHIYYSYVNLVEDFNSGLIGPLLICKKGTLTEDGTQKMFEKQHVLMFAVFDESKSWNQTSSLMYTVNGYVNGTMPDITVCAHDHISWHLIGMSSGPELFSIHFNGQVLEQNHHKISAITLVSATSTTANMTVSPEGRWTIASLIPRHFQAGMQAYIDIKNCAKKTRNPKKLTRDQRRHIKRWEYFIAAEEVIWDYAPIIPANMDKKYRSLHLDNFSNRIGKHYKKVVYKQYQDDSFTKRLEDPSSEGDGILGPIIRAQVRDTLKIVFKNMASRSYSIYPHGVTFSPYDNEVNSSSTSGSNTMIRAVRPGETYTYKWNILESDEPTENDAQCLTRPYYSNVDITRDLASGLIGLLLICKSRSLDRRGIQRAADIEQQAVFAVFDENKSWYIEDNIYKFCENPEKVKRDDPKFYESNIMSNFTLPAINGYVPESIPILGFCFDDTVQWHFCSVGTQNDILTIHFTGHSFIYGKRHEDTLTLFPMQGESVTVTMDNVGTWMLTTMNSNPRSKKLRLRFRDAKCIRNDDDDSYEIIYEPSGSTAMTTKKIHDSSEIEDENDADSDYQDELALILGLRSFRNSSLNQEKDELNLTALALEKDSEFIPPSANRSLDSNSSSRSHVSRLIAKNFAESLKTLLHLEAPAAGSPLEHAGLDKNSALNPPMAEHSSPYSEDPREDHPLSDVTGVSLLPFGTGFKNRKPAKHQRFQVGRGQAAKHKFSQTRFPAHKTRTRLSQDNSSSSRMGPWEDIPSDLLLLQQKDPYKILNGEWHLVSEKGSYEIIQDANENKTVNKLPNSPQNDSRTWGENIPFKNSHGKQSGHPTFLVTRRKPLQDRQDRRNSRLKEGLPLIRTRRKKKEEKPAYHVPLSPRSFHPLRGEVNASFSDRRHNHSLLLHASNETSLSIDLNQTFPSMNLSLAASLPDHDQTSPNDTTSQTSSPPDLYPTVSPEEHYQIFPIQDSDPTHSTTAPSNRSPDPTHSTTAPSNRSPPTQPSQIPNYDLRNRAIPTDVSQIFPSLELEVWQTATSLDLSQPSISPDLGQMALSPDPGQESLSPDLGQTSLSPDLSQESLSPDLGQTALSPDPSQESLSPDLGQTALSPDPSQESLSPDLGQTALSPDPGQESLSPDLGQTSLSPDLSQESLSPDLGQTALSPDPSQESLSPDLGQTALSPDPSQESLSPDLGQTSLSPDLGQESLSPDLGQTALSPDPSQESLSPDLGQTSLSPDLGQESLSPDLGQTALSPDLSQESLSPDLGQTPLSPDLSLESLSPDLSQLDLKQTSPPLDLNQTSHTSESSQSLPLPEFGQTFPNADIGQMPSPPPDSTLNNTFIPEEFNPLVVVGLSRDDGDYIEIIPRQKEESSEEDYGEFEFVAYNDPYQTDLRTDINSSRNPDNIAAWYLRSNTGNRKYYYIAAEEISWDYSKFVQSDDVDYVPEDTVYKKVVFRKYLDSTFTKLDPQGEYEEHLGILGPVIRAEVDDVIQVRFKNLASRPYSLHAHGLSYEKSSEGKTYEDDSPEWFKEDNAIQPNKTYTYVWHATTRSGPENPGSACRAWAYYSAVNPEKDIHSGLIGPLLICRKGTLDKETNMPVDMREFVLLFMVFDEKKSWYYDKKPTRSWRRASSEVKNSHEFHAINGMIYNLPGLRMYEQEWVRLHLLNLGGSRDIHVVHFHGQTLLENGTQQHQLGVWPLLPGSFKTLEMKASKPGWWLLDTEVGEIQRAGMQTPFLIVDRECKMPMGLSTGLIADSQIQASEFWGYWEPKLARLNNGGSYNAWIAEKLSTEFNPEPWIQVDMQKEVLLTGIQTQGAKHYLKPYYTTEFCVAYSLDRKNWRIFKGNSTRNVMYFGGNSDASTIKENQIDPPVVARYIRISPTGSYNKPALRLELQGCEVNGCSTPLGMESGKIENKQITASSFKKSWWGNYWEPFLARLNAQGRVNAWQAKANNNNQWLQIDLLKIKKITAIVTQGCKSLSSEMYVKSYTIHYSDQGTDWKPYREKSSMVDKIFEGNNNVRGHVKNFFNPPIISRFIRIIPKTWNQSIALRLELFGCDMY

B1: wild-type bovine activated protein C (recombinant, thrombin-activated) (protein)
chain 1: ANSFLEELRPGNVERECSEEVCEFEEAREIFQNTEDTMAFWSKYSDGDQCEDRPSGSPCDLPCCGRGKCIDGLGGFRCDCAEGWEGRFCLHEVRFSNCSAENGGCAHYCMEEEGRRHCSCAPGYRLEDDHQLCVSKVTFPCGRLGKRMEKKRKTL
chain 2: IVDGQEAGWGESPWQAVLLDSKKKLVCGAVLIHVSWVLTVAHCLDSRKKLIVRLGEYDMRRWESWEVDLDIKEVIIHPNYTKSTSDNDIALLRLAKPATLSQTIVPICLPDSGLSERKLTQVGQETVVTGWGYRDETKRNRTFVLSFIKVPVVPYNACVHAMENKISENMLCAGILGDPRDACEGDSGGPMVTFFRGTWFLVGLVSWGEGCGRLYNYGVYTKVSRYLDWIYGHIKAQEAPLESQVP
factor VIIIa inactivation assay (FXa formation, S-2222) with human protein S and factor V [1]: the activity of factor VIIIa was inactivated by all APC's from section (2)(i) above but high concentrations were needed | factor VIIIa inactivation assay with bovine protein S and bovine factor V [1]: able to inhibit factor VIIIa activity in the presence of bovine protein S and bovine factor V; worked more efficiently than wild-type human APC and human APC-SP | factor VIIIa inactivation assay with human protein S and factor V, low APC concentrations [1]: At low concentrations, neither bovine wild-type APC nor bovine APC-SP could inactivate factor VIIIa | prothrombin time (PT) assay, clotting time in bovine plasma [2]: wild-type bovine APC and its mutant expressed only weak anticoagulant acitivity in bovine plasma | prothrombin time (PT) assay, clotting time in human plasma [3]: Neither wild-type bovine APC nor bovine APC-SP had any effect in human plasma

B2: wild-type human activated protein C (recombinant, thrombin-activated) (protein)
chain 1: ANSFLEELRHSSLERECIEEICDFEEAKEIFQNVDDTLAFWSKHVDGDQCLVLPLEHPCASLCCGHGTCIDGIGSFSCDCRSGWEGRFCQREVSFLNCSLDNGGCTHYCLEEVGWRRCSCAPGYKLGDDLLQCHPAVKFPCGRPWKRMEKKRSHL
chain 2: LIDGKMTRRGDSPWQVVLLDSKKKLACGAVLIHPSWVLTAAHCMDESKKLLVRLGEYDLRRWEKWELDLDIKEVFVHPNYSKSTTDNDIALLHLAQPATLSQTIVPICLPDSGLAERELNQAGQETLVTGWGYHSSREKEAKRNRTFVLNFIKIPVVPHNECSEVMSNMVSENMLCAGILGDRQDACEGDSGGPMVASFHGTWFLVGLVSWGEGCGLLHNYGVYTKVSRYLDWIHGHIRDKEAPQKSWAP
remaining FVa activity over time (prothrombinase assay); plasma FVa, 0.4 nM APC, phospholipid vesicles [4]: The addition of wt APC resulted in a slow decrease in FVa activity corresponding to cleavage at Arg306 | factor VIIIa inactivation assay (FXa formation, S-2222) with human protein S and factor V [1]: the activity of factor VIIIa was inactivated by all APC's from section (2)(i) above but high concentrations were needed | factor VIIIa inactivation assay with bovine protein S and bovine factor V [1]: able to inhibit factor VIIIa activity in the presence of bovine protein S and bovine factor V | prothrombin time (PT) assay, clotting time in bovine plasma [2]: wild-type human APC and human APC-SP efficiently prolong clotting time in bovine plasma | prothrombin time (PT) assay, clotting time in human plasma [3]: Both wild-type human APC and human APC-SP increased clotting times essentially in this PT assay | remaining FVa activity over time (prothrombinase assay, S2238); 0.76 nM plasma FVa, 0.39 nM APC, phospholipid vesicles [3]: initial rapid loss of FVa activity that is observed during the first 5 minutes of incubation; slow decrease in FVa activity observed between 5 minutes and 25 minutes of incubation
